Data from patent US20220395579A1 (Daiichi Sankyo, published 2022).
Numbering of substitutions follows the chain as printed.

T1: human CLDN6 (human, UniProt P56747 1-220)
T1 construct: In the flow cytometry it was expressed on 293T cells from human CLDN6/pCMV-Entry bought from OriGene; It was also expressed on CHO-K1 cells by cDNA transfection, and the endogenous protein was immunoprecipitated from NTERA-2 cell lysate; also called claudin-6; hCLDN6
T1 sequence: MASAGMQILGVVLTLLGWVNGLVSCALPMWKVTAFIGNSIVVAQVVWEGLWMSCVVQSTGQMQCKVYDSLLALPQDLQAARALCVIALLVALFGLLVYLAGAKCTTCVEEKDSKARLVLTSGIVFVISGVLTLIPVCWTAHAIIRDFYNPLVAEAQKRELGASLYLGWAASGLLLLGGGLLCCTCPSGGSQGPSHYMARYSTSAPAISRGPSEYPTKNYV

T2: human CLDN3 (human, UniProt O15551 1-220)
T2 construct: whole, on cells; Transfection was confirmed with an anti-FLAG antibody, so the construct may carry a tag
T2 sequence (looked up): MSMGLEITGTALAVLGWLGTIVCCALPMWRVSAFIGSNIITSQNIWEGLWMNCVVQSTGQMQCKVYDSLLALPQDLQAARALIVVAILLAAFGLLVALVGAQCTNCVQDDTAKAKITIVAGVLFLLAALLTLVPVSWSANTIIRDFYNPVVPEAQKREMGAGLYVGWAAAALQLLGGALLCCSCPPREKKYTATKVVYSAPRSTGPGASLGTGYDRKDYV

T3: human CLDN4 (human, UniProt O14493 1-209)
T3 construct: whole, on cells; Transfection was confirmed with an anti-FLAG antibody, so the construct may carry a tag
T3 sequence (looked up): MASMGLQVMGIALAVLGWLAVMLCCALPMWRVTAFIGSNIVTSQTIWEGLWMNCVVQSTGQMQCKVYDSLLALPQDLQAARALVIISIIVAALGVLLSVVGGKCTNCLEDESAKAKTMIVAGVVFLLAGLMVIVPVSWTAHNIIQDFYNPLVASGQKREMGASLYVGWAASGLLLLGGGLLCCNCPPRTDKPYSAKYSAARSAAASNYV

T4: human CLDN9 (human, UniProt O95484 1-217)
T4 construct: It was expressed on 293T cells from human CLDN9/pCMV6-Entry bought from OriGene; also called claudin-9
T4 sequence: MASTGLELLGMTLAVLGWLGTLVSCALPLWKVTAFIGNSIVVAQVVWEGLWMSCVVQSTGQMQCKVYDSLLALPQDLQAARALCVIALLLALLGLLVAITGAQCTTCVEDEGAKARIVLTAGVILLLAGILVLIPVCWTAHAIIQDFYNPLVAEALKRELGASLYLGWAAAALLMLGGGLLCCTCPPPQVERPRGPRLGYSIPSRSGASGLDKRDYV

B1: mouse anti-CLDN6 antibody C7 (antibody, V domains shown)
VH: EVQLQQSGPELVKPGASVKISCKTSGYTFTEYTMHWVQQSHGKSLEWIGGVNPNSGDTSYNQKFKGKATLTVDKSSSTAYMELRSLTSEDSAVYYCARPGGYDVGYYAMDYWGQGTSVTVSS
VL: DIQMTQTASSLSASLGDRVTISCRASQDINNYLNWYQQKPDGTVKLLIYSTSRLHSGVPSRFSGSGSGTHYSLTITHLEQEDIATYFCQQGYPLPWTFGGGTKLEIK
notes: Mouse monoclonal antibody purified from the culture supernatant of hybridoma 218C7; also called C7 antibody; 218C7
B2: humanized anti-CLDN6 antibody H1L3 (antibody, human IgG1, kappa, L234A L235A, V domains shown)
VH: QVQLVQSGAEVKKPGASVKVSCKASGYTFTEYTMHWVRQAPGQGLEWMGGVNPNSGDTSYAQKFQGRVTITADTSTSTAYMELSSLRSEDTAVYYCARPGGYDVGYYAMDYWGQGTLVTVSS
VL: DIQMTQSPSSLSASVGDRVTITCRASQDINNYLNWYQQKPGGAVKLLIYFTSRLHSGVPSRFSGSGSGTDYTLTISSLQPEDFATYYCQQGYPLPWTFGGGTKVEIKR
notes: Heavy chain hH1 with light chain hL3; Human IgG1 LALA constant region and human kappa light chain; also called H1L3 antibody
B3: humanized anti-CLDN6 antibody H1L1 (antibody, human IgG1, kappa, L234A L235A, V domains shown)
VH: B2 VH
VL: B2 VL with G42K, V44P, G100Q
notes: Heavy chain hH1 with light chain hL1; Human IgG1 LALA constant region and human kappa light chain; also called H1L1 antibody
B4: humanized anti-CLDN6 antibody H2L2 (antibody, human IgG1, kappa, L234A L235A, V domains shown)
VH: B2 VH with Q1E, A24T, Q43K, G44S
VL: B2 VL with G42K, D70H, G100Q
notes: Heavy chain hH2 with light chain hL2; Human IgG1 LALA constant region and human kappa light chain; also called H2L2 antibody
B5: humanized anti-CLDN6 antibody H3L3 (antibody, human IgG1, kappa, L234A L235A, V domains shown)
VH: B2 VH with Q1E, A24T, I70L, A72V, T74K
VL: B2 VL
notes: Heavy chain hH3 with light chain hL3; Human IgG1 LALA constant region and human kappa light chain; also called H3L3 antibody
B6: humanized anti-CLDN6 antibody H2L4 (antibody, human IgG1, kappa, L234A L235A, V domains shown)
VH: B2 VH with Q1E, A24T, Q43K, G44S
VL: B2 VL with Y92N, P93T
notes: Human IgG1 LALA constant region and human kappa light chain; also called H2L4 antibody
B7: mouse anti-CLDN6 antibody B1 (antibody, V domains shown)
VH: B1 VH
VL: B1 VL with S50F, H77N
notes: Mouse monoclonal antibody purified from the culture supernatant of hybridoma 218B1; a mouse IgG1 was used as the control; also called B1 antibody; 218B1

Target: T1, human CLDN6
Experiment: FACS on CHO-K1 cells transfected with human claudin-6 cDNA

Does B1 bind?
Result: binds

Target: T2, human CLDN3
Experiment: flow cytometry on 293T cells transiently transfected with human CLDN3

Does B2 bind?
Result: no binding (tested: 100 nM)

Does B3 bind?
Result: no binding (tested: 100 nM)

Does B4 bind?
Result: no binding (tested: 100 nM)

Does B5 bind?
Result: no binding (tested: 100 nM)

Does B6 bind?
Result: no binding (tested: 100 nM)

Does B7 bind?
Result: no binding

Does B1 bind?
Result: no binding

Target: T3, human CLDN4
Experiment: flow cytometry on 293T cells transiently transfected with human CLDN4

Does B2 bind?
Result: no binding (tested: 100 nM)

Does B3 bind?
Result: no binding (tested: 100 nM)

Does B4 bind?
Result: no binding (tested: 100 nM)

Does B5 bind?
Result: no binding (tested: 100 nM)

Does B6 bind?
Result: no binding (tested: 100 nM)

Does B7 bind?
Result: no binding

Does B1 bind?
Result: no binding

Target: T1, human CLDN6
Experiment: flow cytometry on 293T cells transiently transfected with human CLDN6
Procedure: (§1) The binding activity of the humanized anti-CLDN6 antibody produced in Example 136 to human CLDN6 and its family molecules, CLDN3, CLDN4, and CLDN9, was evaluated by using a flow cytometry method. […] The cells were washed with Dulbecco's phosphate buffered saline (Sigma-Aldrich Co. LLC) containing 5% fetal bovine serum (Hyclone) (hereinafter, referred to as 5% FBS-containing PBS), and FITC AffiniPureF (ab′)₂ Fragment Goat Anti-Human IgG (H+L) (Jackson ImmunoResearch Laboratories Inc.) 150-fold diluted with 5% FBS-containing PBS was then added thereto, and the cells were suspended and left to stand at 4° C. for 30 minutes. After washing with 5% FBS-containing PBS, detection was carried out by using a flow cytometer (FC500; Beckman Coulter, Inc.). Data analysis was carried out by using FlowJo (Tree Star, Inc.), and mean fluorescence intensity (MFI) of FITC, which indicates the amount of the binding antibody, was calculated. […] In each graph in FIG. 42, the abscissa represents antibody concentrations and the ordinate represents MFI.

Does B2 bind?
Result: binds

Does B3 bind?
Result: binds

Does B4 bind?
Result: binds

Does B5 bind?
Result: binds

Does B6 bind?
Result: binds

Target: T4, human CLDN9
Experiment: flow cytometry on 293T cells transiently transfected with human CLDN9
Procedure: as §1

Does B2 bind?
Result: binds

Does B3 bind?
Result: binds

Does B4 bind?
Result: binds

Does B5 bind?
Result: binds

Does B6 bind?
Result: binds

Does B7 bind?
Result: binds

Does B1 bind?
Result: binds

Target: T1, human CLDN6
Experiment: immunoprecipitation from NTERA-2 cell lysate with the antibody, SDS-PAGE, mass spectrometry of the 18 kDa band
Procedure: 2×10⁷ NTERA-2 cells were collected and washed twice with PBS. The cells were collected by using a cell scraper, and centrifuged at 1500 rpm for 5 minutes. After the supernatant was removed, the cells were resuspended in 2 mL of the lysis buffer, and treated at 4° C. for 30 minutes. The resultant was centrifuged (13000 rpm, 20 minutes, 4° C.) to prepare a cell lysate. Protein G Sepharose/lysis buffer (50% slurry; 180 μL) was added to the cell lysate, and the resultant was rotated at 4° C. for 30 minutes and then centrifuged at 4° C. for 1 hour, and the supernatant was collected. […] The Protein G Sepharose was washed six times with the lysis buffer (1 mL), and then resuspended in 1×SDS sample buffer. After the suspension was treated at 100° C. for 5 minutes, the solution was collected as a sample for SDS-PAGE. SDS-PAGE was carried out in the same manner as in 2-2), and the electrophoresis gel was stained with CBB. The part corresponding to 18 kDa was cut out of the electrophoresis gel, and subjected to mass spectrometry.

Does B7 bind?
Result: binds
